Measurements: paper PMC9508834, “Mechanism of protein-primed template-independent DNA synthesis by Abi polymerases” (Nucleic Acids Research, 2022)
“And” between values parts separate entries of the source, which are not always exact repeats. Equal values may be shown once.

Columns and labels:
[1] = target: Abi-P2 of E. coli prophage EC30 (residues 1–541) (E. coli prophage EC30 (Enterobacteria phage P2-EC30)); assay: crystal structure; Abi-P2 (1–541) 6 mg/ml, sitting drop at 18°C and 4°C; space group P2(1); 3.1 Å
[2] = target: Abi-P2 of E. coli prophage EC30 (residues 1–541) (E. coli prophage EC30 (Enterobacteria phage P2-EC30)); assay: cryo-EM structure; Abi-P2 1 mg/ml in 20 mM Tris pH 7.0, 500 mM NaCl, 1 mM DTT; tilted dataset, C3 symmetry, 3.9 Å low-quality reconstruction, not deposited
[3] = target: Abi-P2 of E. coli prophage EC30 (residues 1–541) (E. coli prophage EC30 (Enterobacteria phage P2-EC30)); assay: SEC-MALS; Superdex 200 Increase 10/300 GL, 100 μl samples, 25 mM Tris pH 7.0, 400 mM NaCl, 2% glycerol, 1 mM DTT
[4] = target: the molecule itself; assay: cryo-EM structure; Ll-AbiK 1.0 mg/ml on Quantifoil R1.2/1.3 grid, single-particle reconstruction with D3 symmetry, 2.3 Å
[5] = target: the molecule itself; assay: cryo-EM structure; Ll-AbiK Y44F 1.74 mg/ml on C-flat-2/1 grid, 2D classification; only hexamer classes used for the reconstruction (D3 symmetry, 2.7 Å)

## Abi-P2 of E. coli prophage EC30 (residues 1–541) (enzyme)
[1]
  stoichiometry N: 3
[2]
  stoichiometry N: 3
[3]
  stoichiometry N: 3

B1: Lactococcus lactis AbiK, wild type (Ll-AbiK–DNA adduct) (enzyme)
chain: MKKEFTELYDFIFDPIFLVRYGYYDRSIKNKKMNTAKVELDNEYGKSDSFYFKVFNMESFADYLRSHDLKTHFNGKKPLSTDPVYFNIPKNIEARRQYKMPNLYSYMALNYYICDNKKEFIEVFIDNKFSTSKFFNQLNFDYPKTQEITQTLLYGGIKKLHLDLSNFYHTLYTHSIPWMIDGKSASKQNRKKGFSNTLDTLITACQYDETHGIPTGNLLSRIITELYMCHFDKQMEYKKFVYSRYVDDFIFPFTFENEKQEFLNEFNLICRENNLIINDNKTKVDNFPFVDKSSKSDIFSFFENITSTNSNDKWIKEISNFIDYCVNEEHLGNKGAIKCIFPVITNTLKQKKVDTKNIDNIFSKRNMVTNFNVFEKILDLSLKDSRLTNKFLTFFENINEFGFSSLSASNIVKKYFSNNSKGLKEKIDHYRKNNFNQELYQILLYMVVFEIDDLLNQEELLNLIDLNIDDYSLILGTILYLKNSSYKLEKLLKKIDQLFINTHANYDVKTSRMAEKLWLFRYFFYFLNCKNIFSQKEINSYCQSQNYNSGQNGYQTELNWNYIKGQGKDLRANNFFNELIVKEVWLISCGENEDFKYLN
modifications: DNA (9–17 nt by mass spectrometry) covalently attached by its 5′ end to the hydroxyl group of Tyr44
notes: AbiK of Lactococcus lactis, encoded on plasmid pSRQ800; synthetic gene; theoretical MW of the monomer 71.5 kDa; it says that the whole length of the polypeptide chain is visible in the model except residues 189–190; The short DNA was synthesised in the bacterial cell and co-purified; source: E. coli BL21 Star (DE3), purified (HisTrap, SUMO protease, HisTrap flow-through, Superdex 200); not shown: …
[4]
  stoichiometry N: 6

B2: Ll-AbiK Y44F (enzyme, Lactococcus lactis)
chain: MKKEFTELYDFIFDPIFLVRYGYYDRSIKNKKMNTAKVELDNEFGKSDSFYFKVFNMESFADYLRSHDLKTHFNGKKPLSTDPVYFNIPKNIEARRQYKMPNLYSYMALNYYICDNKKEFIEVFIDNKFSTSKFFNQLNFDYPKTQEITQTLLYGGIKKLHLDLSNFYHTLYTHSIPWMIDGKSASKQNRKKGFSNTLDTLITACQYDETHGIPTGNLLSRIITELYMCHFDKQMEYKKFVYSRYVDDFIFPFTFENEKQEFLNEFNLICRENNLIINDNKTKVDNFPFVDKSSKSDIFSFFENITSTNSNDKWIKEISNFIDYCVNEEHLGNKGAIKCIFPVITNTLKQKKVDTKNIDNIFSKRNMVTNFNVFEKILDLSLKDSRLTNKFLTFFENINEFGFSSLSASNIVKKYFSNNSKGLKEKIDHYRKNNFNQELYQILLYMVVFEIDDLLNQEELLNLIDLNIDDYSLILGTILYLKNSSYKLEKLLKKIDQLFINTHANYDVKTSRMAEKLWLFRYFFYFLNCKNIFSQKEINSYCQSQNYNSGQNGYQTELNWNYIKGQGKDLRANNFFNELIVKEVWLISCGENEDFKYLN
notes: AbiK of Lactococcus lactis with the protein-priming tyrosine 44 replaced by phenylalanine; Unable to carry out protein-primed DNA synthesis, so it carries no DNA; Purification of the variants is described only in general terms with the wild type; also called Y44F variant; source: E. coli BL21 Star (DE3), purified; not shown: His6-SUMO, N-terminal, cleaved
[5]
  stoichiometry N: 3 and 6
